Source: the supplement of paper PMC10126150
± gives the standard deviation of the averaged measurements.

System: ATP
Assay: switch fluorescence ratio, 500 uM ATP over buffer (Cy3 cluster intensity, sum of 5 cycles each) (fold (ratio)); higher = stronger signal-on switching upon ATP binding; sequences stand for … in TCGTCGGCAGCGTCAGATGTGTATAAGAGACAGTTTTTTTTTTTTTTTTTTTTTTTTT…TC
Conditions: aptamer strand: ATP DNA aptamer (quencher-CACCTGGGGGAGTATTGCGGAGGAAGG + anchor), 100 nM annealed; ATP concentration: 500 uM
Outline: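 The fluorescence ratio divides summed target-cycle Cy3 intensity by summed buffer-cycle Cy3 intensity for each cluster and is averaged per switch-domain sequence. Cy3-labelled switching-strand clusters on a modified Illumina MiSeq flow-cell were annealed to 100 nM quencher-labelled ATP aptamer, then imaged in selection buffer and again after 15 min with 500 uM ATP at 22 °C. Five such cycles were run, with NaOH stripping and re-annealing between them, and clusters outside 100-1000 RFU were excluded.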
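Note: ATP exposure 15 min at 22 °C before imaging.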

Row | Sequence | switch fluorescence ratio
1 | CAAATGATTT | 0.985 ± 0.021
2 | GTTAGAGAGG | 0.9779 ± 0.0078
3 | CCGGTGGGGT | 1.01 ± 0.03
4 | ATGTGGACAA | 1.02 ± 0.021
5 | CCGAAGAGTC | 1.66 ± 0.28
6 | ATCTATTAGC | 0.9896 ± 0.009
7 | TTCCTGAGGG | 1.11 ± 0.058
8 | AAGTTGTGGT | 1.01 ± 0.023
9 | GACTGGTTTT | 1.01 ± 0.033
10 | TATTGGGGCG | 0.982 ± 0.017
11 | AATATACGT | 1.05 ± 0.032
12 | CGGGGGGTTG | 0.984 ± 0.033
13 | CAAAAGAGTG | 0.999 ± 0.018
14 | TTTTTAATAC | 1.33 ± 0.29
15 | CGCGGTATCT | 1.02 ± 0.033
16 | GTATAAATGT | 0.984 ± 0.051
17 | GATCTTAACG | 0.9912 ± 0.0096
18 | GGCCGGTTGG | 0.9744 ± 0.0068
19 | TTTTTAGTGG | 0.981 ± 0.015
20 | GGGGCTAGTA | 0.991 ± 0.035
21 | ATTCTCATTG | 0.982 ± 0.038
22 | ATAAGTGATC | 0.981 ± 0.069
23 | TCTTTGATTA | 1.01 ± 0.042

Row | Sequence | switch fluorescence ratio
24 | CCAAACTTAG | 1.02 ± 0.027
25 | GGTTTTAGGG | 0.996 ± 0.039
26 | GAAATGACTT | 1.03 ± 0.015
27 | CAGAGGTAGG | 0.973 ± 0.023
28 | CTAGAGTGAG | 1.02 ± 0.049
29 | GATAAGAGCG | 0.975 ± 0.029
30 | TTGAGATTGC | 0.98 ± 0.027
31 | CTGGTTACGG | 1.01 ± 0.015
32 | ATTGAACGGG | 1.02 ± 0.016
33 | CAGAATGTGG | 0.996 ± 0.068
34 | TTTAGAAACT | 1.027 ± 0.0067
35 | AGTAGGCCTA | 1.04 ± 0.025
36 | TATGTGAAAA | 0.9747 ± 0.006
37 | CATGGGGGTC | 1 ± 0.036
38 | CGGAAAAAGT | 0.97 ± 0.013
39 | TGCGGGGGGC | 0.991 ± 0.012
40 | TTGAGCCA | 1.01 ± 0.025
41 | TCTCCGTGGG | 1.52 ± 0.37
42 | ATAACACGGC | 1.05 ± 0.1
43 | TAGGGTGGG | 1.024 ± 0.0028
44 | AAGTGAATAT | 1.012 ± 0.0095
45 | CTTAGTGAAA | 0.988 ± 0.029
46 | AAGTTTGGGG | 0.983 ± 0.043

Row | Sequence | switch fluorescence ratio
47 | TGCAGAGCAC | 1.01 ± 0.028
48 | GCGAGGACAT | 1.04 ± 0.012
49 | TACAGGTTTC | 1 ± 0.023
50 | GCCTATATTT | 0.994 ± 0.017
51 | CGGTTCTTGA | 0.995 ± 0.038
52 | AAGTACGACT | 1.1 ± 0.016
53 | TTTGGGGGCG | 0.983 ± 0.081
54 | CTAGTTGGTC | 0.981 ± 0.033
55 | CGGGAGCAGG | 1.09 ± 0.014
56 | TTTTAGGTCA | 0.9901 ± 0.0063
57 | CCAGGAGTGT | 1.08 ± 0.012
58 | TATTTGAGTT | 0.96526 ± 0.00075
59 | TCAGGGGTT | 1.15 ± 0.12
60 | GATCTATTGT | 0.9619 ± 0.0088
61 | CCAGAGTGTT | 1.33 ± 0.04
62 | GTGCCTCCTG | 1.03 ± 0.018
63 | TGACGTTAAA | 1.04 ± 0.067
64 | TATTTTCTGT | 0.997 ± 0.036
65 | GTGTGCTTTG | 0.998 ± 0.048
66 | CTCGCATGGT | 1.37 ± 0.024
67 | TATAGTGGTC | 0.971 ± 0.035
68 | AGACGAAAGA | 1.02 ± 0.027
69 | TGTTGCCGGG | 1.0541 ± 0.00067

Row | Sequence | switch fluorescence ratio
70 | TTGCGGGTGG | 1.01 ± 0.028
71 | GGGGTGAGGA | 0.981 ± 0.037
72 | CCAGGGTTGG | 1.04 ± 0.048
73 | CCAGCTGTAT | 1.04 ± 0.0024
74 | TGAAGTGTTT | 1.01 ± 0.028
75 | GAGGGGTTTT | 1.01 ± 0.04
76 | GGTGAAGTCA | 1 ± 0.024
77 | GGTTAGAAGG | 0.96 ± 0.031
78 | GTTTTTCGGT | 0.981 ± 0.026
79 | GCGGGTGGTA | 1.01 ± 0.041
80 | TTTTACAATT | 0.9885 ± 0.0015
81 | GAATGGGGTA | 1.011 ± 0.0057
82 | AAGTAACGCG | 0.977 ± 0.013
83 | GGCTTATGGA | 0.98 ± 0.038
84 | AAGGGTCACC | 0.999 ± 0.031
85 | AAAGAAAGTC | 1.043 ± 0.006
86 | GTTTGGGTGC | 1.072 ± 0.0055
87 | GGGGGGAAAC | 1 ± 0.022
88 | AAGGTACCAG | 1.03 ± 0.036
89 | TATGTGACTT | 1.03 ± 0.0074
90 | TGCTTATCTG | 0.99 ± 0.032
91 | AAGGAGAGCT | 1.01 ± 0.054
92 | GGTTTACGGC | 1 ± 0.016

Row | Sequence | switch fluorescence ratio
93 | TCCTTAAAAA | 1.1 ± 0.06
94 | TGTGTGACAC | 0.998 ± 0.026
95 | TCGTCGTAGG | 1.01 ± 0.03
96 | TCAAACATTT | 1.016 ± 0.0076
97 | GGGGGTTTGG | 0.991 ± 0.03
98 | TTGATATAGT | 0.9993 ± 0.0073
99 | AAAAATCGAA | 1.02 ± 0.05
100 | TATTGGGGTT | 0.996 ± 0.04
101 | ATGCATATGG | 1.03 ± 0.013
102 | GGTGTTTGTA | 1.005 ± 0.0094
103 | CATACACAGG | 1.26 ± 0.078
104 | AAATCATTAA | 1.02 ± 0.018
105 | CGTCGGGGAA | 1.02 ± 0.027
106 | GGTATTGGGG | 1.03 ± 0.034
107 | TCAATTTTGT | 0.997 ± 0.022
108 | TTAGAGGCAT | 1.05 ± 0.066
109 | GAGGTGGGGA | 0.9826 ± 0.0055
110 | TTTACGGCCC | 1.07 ± 0.12
111 | TTATCAGTGG | 0.9707 ± 0.002
112 | AGAGTCATGT | 1.01 ± 0.029
113 | CCCCAGGAAT | 1.24 ± 0.027
114 | CTGAGCGATT | 1.41 ± 0.032
115 | TGTGGCACAC | 1.01 ± 0.018

Row | Sequence | switch fluorescence ratio
116 | CGATTTATGT | 0.9925 ± 0.0057
117 | CAAGTGAGGG | 1.04 ± 0.015
118 | ATGTTAGTTG | 0.965 ± 0.041
119 | TATATGAGGG | 1 ± 0.057
120 | TTGGGTAAGT | 1.016 ± 0.0059
121 | TATTTTAATT | 0.991 ± 0.017
122 | AAAGCTTATT | 0.99822 ± 0.00097
123 | TAGGTGCCTT | 1.006 ± 0.0053
124 | TAAGCTCGTG | 0.97 ± 0.019
125 | TTTATACGGC | 1.03 ± 0.014
126 | TATAATCCTG | 0.992 ± 0.035
127 | AGTAGTTCGG | 1.019 ± 0.0075
128 | ATTGTTAATG | 0.98 ± 0.046
129 | GAGAGTCATC | 1.035 ± 0.0087
130 | TCGAGGGGGA | 1.31 ± 0.63
131 | CGTTTTCAGA | 0.9966 ± 0.0015
132 | TTTGTCGCAT | 1.14 ± 0.067
133 | GGGGGGGGCC | 0.998 ± 0.053
134 | TATTAAAGGG | 0.985 ± 0.017
135 | TAGGGGAGGG | 1.03 ± 0.041
136 | CTAATTGCGA | 1 ± 0.016
137 | AAAGGAGGTT | 1 ± 0.028
138 | CATGGTTCGC | 0.985 ± 0.053

Row | Sequence | switch fluorescence ratio
139 | TTAAGTGGCT | 1.016 ± 0.0095
140 | TTGTTATACG | 1.09 ± 0.079
141 | GGGGAAGGG | 1.12 ± 0.24
142 | TTTGTGTGGA | 1.03 ± 0.0059
143 | GTTCTCCTT | 1.07 ± 0.1
144 | GAATATTTAA | 0.998 ± 0.014
145 | TTTAGCTGAA | 0.962 ± 0.024
146 | GCGAGTGCGG | 1.02 ± 0.018
147 | AAGTCAGCGA | 1.02 ± 0.014
148 | GGTGAAGTGT | 1 ± 0.0051
149 | TGTGTGAGGT | 1.06 ± 0.027
150 | GCTGGGGATA | 1.03 ± 0.032
151 | GGTGTAGAGG | 1.012 ± 0.0022
152 | TTCAAGCAGA | 1.034 ± 0.0087
153 | GATGGAACTA | 1.01 ± 0.034
154 | CATGGGGGCG | 1.01 ± 0.078
155 | GAAAGGAATG | 1.041 ± 0.007
156 | CATTGAGGGC | 0.987 ± 0.021
157 | CAATACTACT | 1.361 ± 0.01
